These are literature values, as cited in patent US20120245117A1, “METHODS OF TREATING SQUAMOUS CELL LUNG CANCER WITH 4-IODO-3-NITROBENZAMIDE IN COMBINATION WITH GEMCITABINE AND CARBOPLATIN” (priority 2011, published 2012).

In the series the test system is SqCLC. Conditions: SqCLC patients; combination with carboplatin/paclitaxel; cited from earlier work.

B1: CP-751,871: an anti-IGF-1R monoclonal antibody (antibody, chains of the INN, looked up)
heavy: EVQLLESGGGLVQPGGSLRLSCTASGFTFSSYAMNWVRQAPGKGLEWVSAISGSGGTTFYADSVKGRFTISRDNSRTTLYLQMNSLRAEDTAVYYCAKDLGWSDSYYYYYGMDVWGQGTTVTVSSASTKGPSVFPLAPCSRSTSESTAALGCLVKDYFPEPVTVSWNSGALTSGVHTFPAVLQSSGLYSLSSVVTVPSSNFGTQTYTCNVDHKPSNTKVDKTVERKCCVECPPCPAPPVAGPSVFLFPPKPKDTLMISRTPEVTCVVVDVSHEDPEVQFNWYVDGVEVHNAKTKPREEQFNSTFRVVSVLTVVHQDWLNGKEYKCKVSNKGLPAPIEKTISKTKGQPREPQVYTLPPSREEMTKNQVSLTCLVKGFYPSDIAVEWESNGQPENNYKTTPPMLDSDGSFFLYSKLTVDKSRWQQGNVFSCSVMHEALHNHYTQKSLSLSPG
light: DIQMTQFPSSLSASVGDRVTITCRASQGIRNDLGWYQQKPGKAPKRLIYAASRLHRGVPSRFSGSGSGTEFTLTISSLQPEDFATYYCLQHNSYPCSFGQGTKLEIKRTVAAPSVFIFPPSDEQLKSGTASVVCLLNNFYPREAKVQWKVDNALQSGNSQESVTEQDSKDSTYSLSSTLTLSKADYEKHKVYACEVTHQGLSSPVTKSFNRGEC
Consider B1, for which the response rate is given as about 78% and the toxicity entry is on record as “strong toxicity”.
